{"source": "patent US20250101074A1", "about": "(Affibody, published 2025)", "assay_in_all_cases": "SPR (Biacore), PEP07843 immobilized, analyte protein injected", "key": {"human IL-17A": {"biological_target": "T1, human IL-17A (human, UniProt Q16552 20-155)", "T1 construct": "Peprotech cat. no; 200-17; homodimeric cytokine; biotinylated with Sulfo-NHS-LC-Biotin for the ELISAs; also called hIL-17A; rhIL-17A", "T1 sequence": "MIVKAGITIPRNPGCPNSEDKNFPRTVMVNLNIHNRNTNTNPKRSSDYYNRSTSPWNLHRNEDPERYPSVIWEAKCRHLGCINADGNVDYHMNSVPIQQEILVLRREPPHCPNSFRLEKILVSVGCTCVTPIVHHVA", "method": "(§1) In the binding experiment, HBS-EP was used as running buffer and the flow rate was 30 μl/min. […] The analytes, i.e. the panels of 24 or 12 different proteins, were each diluted in HBS-EP or HBS-EP supplemented with 500 mM NaCl to final concentrations of from 0.4 to 250 nM and injected for 5 min. […] The results were analyzed using the BiaEvaluation software.\n(§2) The Z-ABD-Z polypeptides were injected over surfaces containing HSA followed by injection of the analyte proteins."}, "hIL-17D": {"biological_target": "T2, hIL-17D (human, UniProt Q8TAD2 18-202, limits assumed)", "T2 sequence (looked up)": "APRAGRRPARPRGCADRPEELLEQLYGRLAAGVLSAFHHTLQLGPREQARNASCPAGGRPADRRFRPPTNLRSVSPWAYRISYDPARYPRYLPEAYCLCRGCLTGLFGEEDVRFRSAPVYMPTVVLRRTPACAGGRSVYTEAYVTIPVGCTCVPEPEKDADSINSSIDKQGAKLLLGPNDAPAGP", "method": "as §1, §2"}, "hIL-17E": {"biological_target": "T3, hIL-17E (human, UniProt Q9H293 33-177)", "T3 sequence (looked up)": "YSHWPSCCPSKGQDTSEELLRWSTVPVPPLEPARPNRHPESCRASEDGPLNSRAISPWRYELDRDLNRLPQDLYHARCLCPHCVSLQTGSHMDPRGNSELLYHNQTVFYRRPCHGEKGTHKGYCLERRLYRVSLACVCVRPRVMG", "method": "as §1, §2"}, "hIL-1beta": {"biological_target": "hIL-1beta (human, UniProt P01584 117-269)", "method": "as §1, §2"}, "[1]": {"biological_target": "T4, Alpha-2-HS-glycoprotein (AHSG Human HEK) (human, UniProt P02765 19-367, limits assumed)", "T4 sequence (looked up)": "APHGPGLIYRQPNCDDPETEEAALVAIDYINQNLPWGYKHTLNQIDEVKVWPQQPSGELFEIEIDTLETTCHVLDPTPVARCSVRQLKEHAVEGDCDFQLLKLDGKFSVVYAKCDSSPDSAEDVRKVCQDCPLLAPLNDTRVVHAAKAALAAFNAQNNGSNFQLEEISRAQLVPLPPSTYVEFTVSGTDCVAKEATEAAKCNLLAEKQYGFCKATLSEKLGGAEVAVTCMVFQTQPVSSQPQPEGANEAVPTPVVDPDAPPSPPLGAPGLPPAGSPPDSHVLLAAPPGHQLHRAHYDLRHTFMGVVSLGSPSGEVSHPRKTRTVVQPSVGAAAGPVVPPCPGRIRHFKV", "method": "as §1, §2"}, "[2]": {"biological_target": "Alpha-1-antitrypsin (SERPINA1 Human) (human, UniProt P01009 25-418)", "sequence (P01009 25-418 limits assumed)": "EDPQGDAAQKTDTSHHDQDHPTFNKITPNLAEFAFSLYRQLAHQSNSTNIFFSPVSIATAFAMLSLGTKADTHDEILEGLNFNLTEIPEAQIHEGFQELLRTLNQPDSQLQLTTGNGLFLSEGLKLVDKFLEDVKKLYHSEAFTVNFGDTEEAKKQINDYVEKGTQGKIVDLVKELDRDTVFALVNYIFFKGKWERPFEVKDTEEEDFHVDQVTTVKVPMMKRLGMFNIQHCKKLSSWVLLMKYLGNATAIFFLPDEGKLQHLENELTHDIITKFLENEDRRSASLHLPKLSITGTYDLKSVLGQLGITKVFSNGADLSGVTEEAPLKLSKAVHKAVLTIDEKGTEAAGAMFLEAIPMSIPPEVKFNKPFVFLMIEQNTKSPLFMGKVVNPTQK", "method": "as §1, §2"}, "[3]": {"biological_target": "T5, Human Hemopexin/HPX Protein (human, UniProt P02790 24-462)", "T5 sequence (looked up)": "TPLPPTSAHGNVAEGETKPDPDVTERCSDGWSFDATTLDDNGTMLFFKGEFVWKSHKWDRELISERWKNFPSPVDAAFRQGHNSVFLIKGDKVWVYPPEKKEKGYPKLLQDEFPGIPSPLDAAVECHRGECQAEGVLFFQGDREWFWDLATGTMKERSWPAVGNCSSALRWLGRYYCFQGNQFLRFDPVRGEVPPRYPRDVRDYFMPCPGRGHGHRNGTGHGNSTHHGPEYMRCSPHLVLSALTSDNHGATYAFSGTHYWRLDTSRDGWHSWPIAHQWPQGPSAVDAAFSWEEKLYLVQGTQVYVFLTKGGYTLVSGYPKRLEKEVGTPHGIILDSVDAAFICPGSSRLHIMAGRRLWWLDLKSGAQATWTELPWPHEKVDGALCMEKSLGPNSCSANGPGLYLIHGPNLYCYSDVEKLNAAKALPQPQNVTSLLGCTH", "method": "as §1, §2"}, "Beta-2-microglobulin/B2M": {"biological_target": "Beta-2-microglobulin/B2M (UniProt P61769 21-119)", "sequence (P61769 21-119 limits assumed)": "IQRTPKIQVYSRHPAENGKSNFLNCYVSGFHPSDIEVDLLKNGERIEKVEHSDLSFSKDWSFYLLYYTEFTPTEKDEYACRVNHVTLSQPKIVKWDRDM", "method": "as §1, §2"}, "[4]": {"biological_target": "Transthyretin/TTR/Prealbumin/PALB Protein (UniProt P02766 21-147)", "method": "as §1, §2"}, "holo-Transferrin": {"biological_target": "holo-Transferrin (UniProt P02787 20-698)", "sequence (P02787 20-698 limits assumed)": "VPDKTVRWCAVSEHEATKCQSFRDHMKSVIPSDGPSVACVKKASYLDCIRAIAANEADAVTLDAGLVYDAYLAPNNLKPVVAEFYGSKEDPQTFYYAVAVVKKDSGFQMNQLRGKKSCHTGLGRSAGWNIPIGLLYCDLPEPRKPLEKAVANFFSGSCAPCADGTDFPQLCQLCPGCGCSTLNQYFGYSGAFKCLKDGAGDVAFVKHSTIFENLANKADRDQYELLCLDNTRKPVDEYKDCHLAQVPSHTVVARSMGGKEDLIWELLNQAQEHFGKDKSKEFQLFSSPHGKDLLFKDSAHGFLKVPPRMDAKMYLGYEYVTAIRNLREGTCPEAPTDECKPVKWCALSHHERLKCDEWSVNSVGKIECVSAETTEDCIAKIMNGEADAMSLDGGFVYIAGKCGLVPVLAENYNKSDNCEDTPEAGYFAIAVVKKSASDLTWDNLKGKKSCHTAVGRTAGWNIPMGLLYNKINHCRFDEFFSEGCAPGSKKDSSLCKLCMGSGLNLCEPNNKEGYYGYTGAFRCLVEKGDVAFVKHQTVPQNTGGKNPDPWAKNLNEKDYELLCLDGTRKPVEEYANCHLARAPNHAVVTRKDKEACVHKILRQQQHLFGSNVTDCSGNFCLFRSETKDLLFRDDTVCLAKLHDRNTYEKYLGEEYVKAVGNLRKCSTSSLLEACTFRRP", "method": "as §1, §2"}, "[5]": {"biological_target": "T6, human IL-17A/F heterodimer (human, UniProt Q16552 20-155; Q96PD4 31-163, limits assumed)", "T6 construct": "bought; also called hIL-17A/F", "T6 sequence (looked up) 1": "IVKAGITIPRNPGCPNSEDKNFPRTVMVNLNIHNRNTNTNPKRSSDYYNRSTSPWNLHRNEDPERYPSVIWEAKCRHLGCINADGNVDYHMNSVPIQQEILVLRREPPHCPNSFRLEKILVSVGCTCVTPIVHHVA", "T6 sequence (looked up) 2": "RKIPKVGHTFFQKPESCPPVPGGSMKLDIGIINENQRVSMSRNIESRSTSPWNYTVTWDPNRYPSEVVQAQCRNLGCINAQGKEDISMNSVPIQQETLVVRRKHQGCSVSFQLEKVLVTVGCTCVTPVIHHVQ", "method": "as §1, §2"}, "hIL-17B": {"biological_target": "T7, hIL-17B (human, UniProt Q9UHF5 21-180)", "T7 sequence (looked up)": "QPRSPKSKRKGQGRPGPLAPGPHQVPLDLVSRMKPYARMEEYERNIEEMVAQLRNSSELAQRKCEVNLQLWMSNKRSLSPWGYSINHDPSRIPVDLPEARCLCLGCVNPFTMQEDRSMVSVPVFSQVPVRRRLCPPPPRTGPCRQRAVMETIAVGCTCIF", "method": "as §1, §2"}}, "data": [{"binder": "GSSLAEAKEAANAELDSYGVSDFYKRLIDKAKTVEGVEALKDAILAALP (designed binder)", "note": "[ABD variant PEP07843]", "values": [{"measurement": "binding result", "setting": "human IL-17A", "value": "no binding (tested: 2, 10, 50 nM)"}, {"measurement": "binding result", "setting": "hIL-17D", "value": "no binding (tested: 50, 250 nM)"}, {"measurement": "binding result", "setting": "hIL-17E", "value": "no binding (tested: 50, 250 nM)"}, {"measurement": "binding result", "setting": "hIL-1beta", "value": "no binding (tested: 50, 250 nM)"}, {"measurement": "binding result", "setting": "[1]", "value": "no binding (tested: 50, 250 nM)"}, {"measurement": "binding result", "setting": "[2]", "value": "no binding (tested: 50, 250 nM)"}, {"measurement": "binding result", "setting": "[3]", "value": "no binding (tested: 50, 250 nM)"}, {"measurement": "binding result", "setting": "Beta-2-microglobulin/B2M", "value": "no binding (tested: 50, 250 nM)"}, {"measurement": "binding result", "setting": "[4]", "value": "no binding (tested: 50, 250 nM)"}, {"measurement": "binding result", "setting": "holo-Transferrin", "value": "no binding (tested: 50, 250 nM)"}, {"measurement": "binding result", "setting": "[5]", "value": "no binding (tested: 50, 250 nM)"}, {"measurement": "binding result", "setting": "hIL-17B", "value": "no binding (tested: 50, 250 nM)"}]}]}
